Source: patent US20130058934A1 (Novartis, published 2013)
Residue numbers refer to the chain shown, from its start. Each block holds one binder with its values, some of them ahead of it.

What was measured:
[1] = biological target: T1, human LRP6 (human, UniProt O75581 20-1613); assay: cell-based or functional assay
[2] = biological target: T2, mouse LRP6 (mouse, UniProt O88572 20-1613); assay: FACS on NIH 3T3 cells, endogenous mouse LRP6
T2 construct: whole, on cells; also called murine LRP6; endogenous LRP6 on NIH 3T3 cells
Description: (§1) Cross-species reactivity to murine and cynomologus LRP6 was determined on cells by FACS analysis. FACS staining was performed essentially as described above. Human U266 cells (no expression of LRP6) were used as a negative control.
(§2) To show cross-reactivity, cells expressing endogenous LRP6 of human (HEK293T/17) and mouse origin (NIH 3T3), or transiently transfected HEK293/T17 cells expressing cynomolgus LRP6, were treated and subjected to flow cytometry as described above.

[3] = biological target: T1, human LRP6; assay: FACS on HEK293T/17 cells, endogenous human LRP6
Description: as §1, §2

[4] = biological target: T3, LRP6-Fc (R&D Systems, catalog No: 1505-LR) (human, UniProt O75581 20-1370); assay: ELISA on coated LRP6-Fc, detection with pentaHis-HRP
T3 construct: Purchased reagent; also called LRP6 protein; 360 KD homodimer antigen LRP6-Fc; not shown: Fc part of the purchased fusion
T3 sequence (looked up): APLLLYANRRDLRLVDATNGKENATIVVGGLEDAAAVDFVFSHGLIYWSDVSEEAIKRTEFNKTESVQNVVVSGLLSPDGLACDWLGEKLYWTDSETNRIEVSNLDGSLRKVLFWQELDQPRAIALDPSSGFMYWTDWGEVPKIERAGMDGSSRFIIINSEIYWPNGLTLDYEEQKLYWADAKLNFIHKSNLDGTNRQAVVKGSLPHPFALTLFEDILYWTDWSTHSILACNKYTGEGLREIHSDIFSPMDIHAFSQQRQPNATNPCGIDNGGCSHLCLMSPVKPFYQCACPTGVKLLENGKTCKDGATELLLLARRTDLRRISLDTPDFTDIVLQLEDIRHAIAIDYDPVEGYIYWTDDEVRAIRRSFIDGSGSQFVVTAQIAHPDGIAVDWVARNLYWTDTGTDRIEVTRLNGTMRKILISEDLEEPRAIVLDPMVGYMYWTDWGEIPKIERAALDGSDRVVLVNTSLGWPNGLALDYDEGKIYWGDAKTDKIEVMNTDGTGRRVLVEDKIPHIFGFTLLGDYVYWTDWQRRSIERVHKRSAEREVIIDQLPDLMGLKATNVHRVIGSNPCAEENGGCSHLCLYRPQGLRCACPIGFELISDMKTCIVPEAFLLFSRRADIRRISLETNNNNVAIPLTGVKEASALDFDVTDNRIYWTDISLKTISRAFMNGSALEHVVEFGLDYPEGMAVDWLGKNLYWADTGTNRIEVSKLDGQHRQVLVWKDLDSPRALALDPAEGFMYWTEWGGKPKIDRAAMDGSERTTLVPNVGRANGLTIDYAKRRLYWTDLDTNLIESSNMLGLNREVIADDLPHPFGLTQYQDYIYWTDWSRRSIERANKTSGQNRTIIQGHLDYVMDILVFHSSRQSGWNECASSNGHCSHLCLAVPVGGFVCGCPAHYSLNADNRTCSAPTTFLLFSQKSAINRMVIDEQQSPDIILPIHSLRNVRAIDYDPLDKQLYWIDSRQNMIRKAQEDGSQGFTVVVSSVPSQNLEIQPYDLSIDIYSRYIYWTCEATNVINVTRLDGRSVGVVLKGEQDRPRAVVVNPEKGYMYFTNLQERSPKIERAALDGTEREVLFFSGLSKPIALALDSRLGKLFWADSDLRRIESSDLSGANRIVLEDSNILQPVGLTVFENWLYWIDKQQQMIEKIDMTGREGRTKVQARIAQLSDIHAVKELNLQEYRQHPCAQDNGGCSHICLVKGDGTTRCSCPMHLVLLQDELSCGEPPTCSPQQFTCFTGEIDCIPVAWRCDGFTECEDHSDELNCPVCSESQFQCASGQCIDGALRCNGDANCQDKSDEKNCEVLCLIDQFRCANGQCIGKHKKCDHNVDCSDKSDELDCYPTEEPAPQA
Description: Binding EC₅₀ of scFvs against LRP6 protein was measured by ELISA. Maxisorp plate was coated with LRP6-Fc (R&D Systems, catalog No: 1505-LR) at 3 μg/ml at 4° C. overnight. The plate was blocked with 50 μl of 2% BSA for one hour, and washed five times with the wash solution. The samples were diluted with 1% BSA accordingly. The plate was incubated at RT for 1 h, and washed for 3 times. Detection was done by adding 50 μl pentaHis-HRP (Qiagen Mat. No. 1014992) at 1:2000 dilution in 1% BSA, incubated at RT for 1 h, and washed 3 times. 50 μl of substrate reagent A plus B (R&D systems) was added, then incubated for 5-20 min depending on the color. The reaction was stopped by adding 25 μl of the stop solution, followed by plate reading at 450 nm.
Affinity analysis ELISA EC₅₀ was carried out for both scFv08168 and scFv06475 wild type and variants.

[5] = biological target: T4, LRP6 PD3/4 (human, UniProt O75581 631-1246); assay: Biacore T-100 SPR, antibody captured by anti-human IgG Fc on a CM4 chip, PD3/4 injected; N = 4
T4 construct: range 631-1246; Recombinant soluble fragment; also called Propeller Domains 3-4 of LRP6; recombinant LRP6 PD3/4
T4 sequence (looked up): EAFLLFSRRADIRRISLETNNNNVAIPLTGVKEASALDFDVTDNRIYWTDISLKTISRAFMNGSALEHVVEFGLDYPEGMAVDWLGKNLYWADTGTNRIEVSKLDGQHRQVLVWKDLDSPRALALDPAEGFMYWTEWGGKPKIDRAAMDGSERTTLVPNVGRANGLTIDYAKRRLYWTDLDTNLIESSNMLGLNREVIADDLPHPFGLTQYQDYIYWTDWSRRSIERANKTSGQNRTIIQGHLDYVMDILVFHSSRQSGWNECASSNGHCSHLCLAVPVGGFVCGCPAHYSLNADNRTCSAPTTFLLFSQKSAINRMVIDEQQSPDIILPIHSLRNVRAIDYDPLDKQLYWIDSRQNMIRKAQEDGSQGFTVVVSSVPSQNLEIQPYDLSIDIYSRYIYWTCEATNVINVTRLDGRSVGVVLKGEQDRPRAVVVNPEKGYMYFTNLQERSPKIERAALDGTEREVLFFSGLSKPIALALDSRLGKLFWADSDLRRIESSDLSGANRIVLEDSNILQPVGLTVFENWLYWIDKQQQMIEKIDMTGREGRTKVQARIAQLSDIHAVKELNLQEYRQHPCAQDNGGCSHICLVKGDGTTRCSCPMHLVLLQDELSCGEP
Description: The carboxymethyl dextran surface was activated with a 7 min injection of a 1:1 ratio of 0.4 M EDC (1-Ethyl-3-[3-dimethylaminopropyl]carbodiimide hydrochloride) and 0.1 M NHS(N-hydroxysuccinimide). […] PD1/2 and PD3/4 were prepared as two fold concentration series starting at 50 nM, and injected at 30 μl/min for 1 min. […] The surfaces were then regenerated two times with 10 mM glycine (pH 2.2). […] PD3/4 at a saturating concentration of 100 nM was then flowed over the surface at a flow rate of 30 μl/min for 30 min. A saturating concentration of 100 nM PD1/2 was injected immediately after the PD3/4. The dissociation constant (KD), association (kₒₙ), and dissociation (koff) rates were calculated from the baseline subtracted corrected binding curves using the BIAevaluation software (GE Healthcare).

T2 sequence (O88572 20-1613): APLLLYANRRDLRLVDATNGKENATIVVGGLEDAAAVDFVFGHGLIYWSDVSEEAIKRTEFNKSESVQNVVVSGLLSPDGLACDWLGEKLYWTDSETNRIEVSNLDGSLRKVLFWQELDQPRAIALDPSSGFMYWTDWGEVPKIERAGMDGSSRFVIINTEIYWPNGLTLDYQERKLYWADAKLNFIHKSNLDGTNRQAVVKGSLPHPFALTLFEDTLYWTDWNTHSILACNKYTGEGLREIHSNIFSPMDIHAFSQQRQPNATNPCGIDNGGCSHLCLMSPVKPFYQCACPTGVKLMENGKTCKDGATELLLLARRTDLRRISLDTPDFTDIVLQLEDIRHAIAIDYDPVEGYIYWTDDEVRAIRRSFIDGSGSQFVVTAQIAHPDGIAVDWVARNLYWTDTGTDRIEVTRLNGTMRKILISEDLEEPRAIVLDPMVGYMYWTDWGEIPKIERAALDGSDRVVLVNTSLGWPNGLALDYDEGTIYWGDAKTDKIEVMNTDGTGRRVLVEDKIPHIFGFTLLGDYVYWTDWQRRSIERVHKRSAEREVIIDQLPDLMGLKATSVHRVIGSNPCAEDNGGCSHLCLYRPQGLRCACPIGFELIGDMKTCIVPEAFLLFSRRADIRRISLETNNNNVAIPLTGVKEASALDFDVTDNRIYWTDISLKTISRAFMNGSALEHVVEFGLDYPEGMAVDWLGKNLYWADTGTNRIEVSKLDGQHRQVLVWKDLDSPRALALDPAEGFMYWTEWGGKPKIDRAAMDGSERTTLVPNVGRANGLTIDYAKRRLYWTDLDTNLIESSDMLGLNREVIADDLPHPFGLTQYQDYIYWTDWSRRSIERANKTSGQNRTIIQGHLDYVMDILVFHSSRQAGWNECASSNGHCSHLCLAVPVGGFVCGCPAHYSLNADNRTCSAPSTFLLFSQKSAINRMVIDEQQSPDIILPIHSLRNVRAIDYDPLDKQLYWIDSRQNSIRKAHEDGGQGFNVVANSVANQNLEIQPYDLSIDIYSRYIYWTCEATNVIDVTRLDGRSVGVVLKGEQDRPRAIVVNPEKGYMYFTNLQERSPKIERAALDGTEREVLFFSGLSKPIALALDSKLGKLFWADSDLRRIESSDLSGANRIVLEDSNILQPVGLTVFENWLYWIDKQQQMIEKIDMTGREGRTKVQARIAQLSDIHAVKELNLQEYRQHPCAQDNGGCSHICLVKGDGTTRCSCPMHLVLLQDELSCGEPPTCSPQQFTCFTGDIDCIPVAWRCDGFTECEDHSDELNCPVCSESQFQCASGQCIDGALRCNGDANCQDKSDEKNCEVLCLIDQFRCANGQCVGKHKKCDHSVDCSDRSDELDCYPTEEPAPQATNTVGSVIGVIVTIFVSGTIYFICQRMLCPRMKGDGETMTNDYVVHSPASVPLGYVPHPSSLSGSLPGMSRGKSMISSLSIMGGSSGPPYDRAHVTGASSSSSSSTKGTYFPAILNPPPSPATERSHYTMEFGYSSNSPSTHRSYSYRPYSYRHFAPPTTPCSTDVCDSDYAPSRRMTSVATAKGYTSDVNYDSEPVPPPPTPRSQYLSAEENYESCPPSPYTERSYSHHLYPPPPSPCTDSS

B1: scFv08168-D4 (scFv, not shown: small tags and cut ends)
scFv: QVQLVESGGGLVQPGGSLRLSCAASGFTFSDYVMNWVRQAPGKGLEWVSSISWSGVNTHYADSVKGRFTISRDNSKNTLYLQMNSLRAEDTAVYYCARLGATANNIRYKFMDVWGQGTLVTVSSGGGGSGGGGSGGGGSDIELTQPPSVSVAPGQTARISCSGDSLRNKVYWYQQKPGQAPVLVIYKNNRPSGIPERFSGSNSGNTATLTISGTQAEDEADYYCQSYDGQKSLVFGGGTKLTVL
IC50 by STF assay for Wnt1 inhibition [1]: 5.56 nM

B3: MOR08473 Fab (Fab, V domains shown)
VH: QVQLVESGGGLVQPGGSLRLSCAASGFTFSSYGMSWVRQAPGKGLEWVSNISNDGHYTYYADSVKGRFTISRDNSKNTLYLQMNSLRAEDTAVYYCARFQASYLDIMDYWGQGTLVTVSS
VL: DIELTQPPSVSVAPGQSITISCSGDNIGSKYVHWYQQKPGQAPVLVIYNDSNRPSGIPERFSGSNSGNTATLTISGTQAEDEADYYCQAWGDNGTRVFGGGTKLTVLG
notes: also called Propeller 3 anti-LRP6 Fab MOR08473
EC50 [2]: 0.46 nM | EC50 [3]: 0.74 nM

B6: MOR08168 Fab (Fab, V domains shown)
VH: QVQLVESGGGLVQPGGSLRLSCAASGFTFSDYVINWVRQAPGKGLEWVSGISWSGVNTHYADSVKGRFTISRDNSKNTLYLQMNSLRAEDTAVYYCARLGATANNIRYKFMDVWGQGTLVTVSS
VL: DIELTQPPSVSVAPGQTARISCSGDSLRNKVYWYQQKPGQAPVLVIYKNNRPSGIPERFSGSNSGNTATLTISGTQAEDEADYYCQSYDGQKSLVFGGGTKLTVL
notes: HuCAL Fab expressed in E. coli from pMORPH X9/X11 FH vectors and purified by Ni-NTA; also called Propeller 1 anti-LRP6 Fab MOR08168
EC50 [2]: 0.12 nM | EC50 [3]: 0.28 nM

B7: MOR06706 Fab (Fab, V domains shown)
VH: QVQLVESGGGLVQPGGSLRLSCAASGFTFSDYAIHWVRQAPGKGLEWVSGISYSGSSTHYADSVKGRFTISRDNSKNTLYLQMNSLRAEDTAVYYCARGSHGNIMAKRYFDFWGQGTLVTVSS
VL: DIELTQPPSVSVAPGQTARISCSGDNIRKKYVYWYQQKPGQAPVLVIYEDSKRPSGIPERFSGSNSGNTATLTISGTQAEDEADYYCSTADSGINNGVFGGGTKLTVL
notes: also called Propeller 1 anti-LRP6 Fab MOR06706
EC50 [3]: 0.14 nM

B9: MOR08193 Fab (Fab, V domains shown)
VH: QVQLKESGPALVKPTQTLTLTCTFSGFSLSNRGGGVGWIRQPPGKALEWLAWIDWDDDKSYSTSLKTRLTISKDTSKNQVVLTMTNMDPVDTATYYCARMHLPLVFDSWGQGTLVTVSS
VL: DIVLTQSPATLSLSPGERATLSCRASQFIGSRYLAWYQQKPGQAPRLLIYGASNRATGVPARFSGSGSGTDFTLTISSLEPEDFAVYYCQQYWSIPITFGQGTKVEIKR
notes: also called Propeller 3 anti-LRP6 Fab MOR08193
EC50 [2]: 0.08 nM | EC50 [3]: 0.36 nM

B10: MOR06475 IgG (antibody, V domains shown)
VH: B9 VH
VL: B9 VL with V86T, W93Y, S94D, I95Y, I97Q
notes: also called MOR6475; MOR6475 (propeller 3 antibody)
Kd [5]: 1.13 nM | koff [5]: 0.000217 s⁻¹ | kon [5]: 201000 M⁻¹ s⁻¹

More lines, now with the values ahead:

IC50 by STF assay for Wnt1 inhibition [1]: 2.59 nM
B2: scFv08168-D2 (scFv, not shown: small tags and cut ends)
scFv: B1 scFv with M34F, S49A, S50G

EC50 [2]: 0.06 nM | EC50 [3]: 0.09 nM
B4: MOR08545 Fab (Fab, V domains shown)
VH: QVQLVESGGGLVQPGGSLRLSCAASGFTFSVNGMHWVRQAPGKGLEWVSVIDGMGHTYYADSVKGRFTISRDNSKNTLYLQMNSLRAEDTAVYYCARYDYIKYGAFDPWGQGTLVTVSS
VL: DIELTQPPSVSVAPGQTARISCSGDNIGSKYVHWYQQKPGQAPVLVIYGDSNRPSGIPERFSGSNSGNTATLTISGTQAEDEADYYCTRTSTPISGVFGGGTKLTVLG
notes: also called Propeller 1 anti-LRP6 Fab MOR08545

EC50 [4]: 0.98 nM
B5: scFv08168 VH:I34M (scFv, V domains shown)
VH: B6 VH with I34M
VL: B6 VL
notes: Point mutant of scFv08168 (His tag)

IC50 by STF assay for Wnt3a inhibition [1]: 1.48 nM
B8: scFv MOR06475 (scFv, V domains shown)
VH: B9 VH
VL: DIVLTQSPATLSLSPGERATLSCRASQFIGSRYLAWYQQKPGQAPRLLIYGASNRATGVPARFSGSGSGTDFTLTISSLEPEDFATYYCQQYYDYPQTFGQGTKVEIK
